Assay results from patent publication US20110059889A1 (SYNTONIX PHARMACEUTICALS, published 2011).
Like-named read-outs stand apart in the source and are kept apart here. Numbered stars: 1 amine (or outer) side, 2 acyl side, 3 side chain; on linkers, the order of the positions; unused ones are H or OH. Bridge positions count the residues as written; N and C are the ends. Square brackets hold non-standard residues; d marks the D form. Ends that are not written are not given here. Tyr(2-NO2) = 2-nitro-Tyr, O=C([C@H](Cc1ccc(O[*:3])cc1[N+](=O)[O-])N[*:1])[*:2]; Phe(4-NO2) = N[C@@H](Cc1ccc([N+](=O)[O-])cc1)C(=O)O; Phe(F5) = N[C@@H](Cc1c(F)c(F)c(F)c(F)c1F)C(=O)O; Phe(4-NH2) = Nc1ccc(C[C@H](N)C(=O)O)cc1; Phe(4-F) = N[C@@H](Cc1ccc(F)cc1)C(=O)O; Phe(2-Me) = Cc1ccccc1C[C@H](N)C(=O)O; Pen = CC(C)(S)[C@H](N)C(=O)O

How the values were obtained:
[1] = target: T1, soluble human FcRn (shFcRn) (human, UniProt P55899 24-297; P61769 21-119); assay: IgG competition ELISA
T1 construct: Biotinylated for the ELISA, amine-coupled to a CM5 chip for SPR; also called biotinylated shFcRn
Method: (§1) The wells were coated with 100 μl/well of 1 μg/ml biotinylated-shFcRn in Buffer A. The plate was sealed and incubated at 37° C. for 2 hours. Afterwards, the plate was washed with 200 μl/well of Buffer B (Buffer B: 100 mM MES pH 6, 150 mM NaCl, 0.5% BSA IgG-free (Jackson ImmunoResearch, West Grove, Pa.), 0.05% Tween-20). […] To allow for mixing, the plate was rocked for 2 minutes, sealed and incubated at 37° C. for 2 hours. […] The plate was covered, incubated for 30 minutes at room temperature and washed 4 times with 200 μl/well of ice-cold buffer B. SureBlue TMB substrate solution (100 μl/well, KPL, Gaithersburg, Md.) was added and the plate was allowed to incubate at room temperature until color developed, which took 5 to 10 minutes. Once color developed, 100 μl/well of TMB stop solution (KPL, Gaithersburg, Md.) was added and the absorbance was measured at 450 nm. The data was plotted as absorbance vs. peptide concentration to derive the inhibitory concentration 50% (IC₅₀) values.

[2] = target: T1, soluble human FcRn (shFcRn); assay: SPR pH 6; 4-amino-Phe in place of Tyr; Pen backbone
Method: (§2) The following steps were performed to cross-link soluble human or cynomolgus FcRn to the dextran surface of a CM5 sensor chip (Biacore AB, Uppsala, Sweden) by an amine coupling reaction involving 1-ethyl-(3-dimethylaminopropyl)-carbodiimide hydrochloride (EDC) (Biacore AB, Uppsala, Sweden) and N-hydroxysuccinimide (NHS) (Biacore AB, Uppsala, Sweden) as recommended by Biacore (BIAapplications Handbook, version AB, section 4.2, Biacore AB, Uppsala, Sweden). […] Residual sites on the FcRn flow cell were blocked with 1 M ethanolamine hydrochloride pH 8.5 (Biacore AB, Uppsala, Sweden). A control flow cell was blocked with ethanolamine for reference subtraction. For analysis of the monomeric peptides, FcRn was coated to a final density of 4000-5000 response units (RU). For analysis of the peptide dimers, FcRn was coated to a density of 2000-2500 RU. All SPR measurements were performed using a BIACORE 3000 Instrument (Biacore AB Uppsala, Sweden). For measurements done at either pH 6 or pH 7.4, experiments were performed in 50 mM phosphate, 100 mM sodium chloride, 0.01% surfactant P20 (Biacore AB, Uppsala, Sweden).
(§3) Ten, 2-fold dilutions of the peptide were injected over the FcRn-CM5 chip at a rate of 20 μl/min for 2 min. The peptide was dissociated from the chip for 2.5 minutes with buffer. […] Sensorgrams were generated and analyzed using BiaEval software version 3.1 (Biacore AB, Uppsala, Sweden). […]

[3] = target: T1, soluble human FcRn (shFcRn); assay: SPR pH 6; pentafluoroPhe in place of Tyr; Pen backbone
Method: as §2, §3

[4] = target: T1, soluble human FcRn (shFcRn); assay: SPR pH 6; 4-nitro-Phe in place of Tyr; Pen backbone
Method: as §2, §3

[5] = target: T1, soluble human FcRn (shFcRn); assay: SPR pH 6
Method: as §2
Ten, 2-fold dilutions of the peptide were injected over the FcRn-CM5 chip at a rate of 20 μl/min for 2 min. The peptide was dissociated from the chip for 2.5 minutes with buffer. Any remaining peptide was removed from the chip with a 30 second injection of HBS-P buffer (Biacore AB, Uppsala, Sweden) at a rate of 30 μl/min. Sensorgrams were generated and analyzed using BiaEval software version 3.1 (Biacore AB, Uppsala, Sweden). The equilibrium RU observed for each injection was plotted against concentration. The equilibrium KD values were derived by analysis of the plots using the steady state affinity model included in the BiaEval software.

[6] = target: T1, soluble human FcRn (shFcRn); assay: SPR pH 7.4
Method: as §2, §3

[7] = target: T1, soluble human FcRn (shFcRn); assay: SPR pH 7.4; remark: listed apart in the source
Method: as §2, §3

[8] = target: T1, soluble human FcRn (shFcRn); assay: IgG competition ELISA; remark: listed apart in the source
Method: as §1

[9] = target: T1, soluble human FcRn (shFcRn); assay: SPR pH 6; Peptide No. 88: Pen, 2-MePhe for Phe (QRF-Pen-TGH-(2-MePhe)-…)
Method: as §2, §3

[10] = target: T1, soluble human FcRn (shFcRn); assay: SPR pH 6; Peptide No. 94: Pen, PheNHAc for Phe (QRF-Pen-TGH-(PheNHAc)-…)
Method: as §2, §3

[11] = target: T1, soluble human FcRn (shFcRn); assay: SPR pH 6; Peptide No. 87: Pen, 2-nitro-Tyr for Tyr (QRF-Pen-TGHFGGL-(2-nitro-Tyr)-PCNGP)
Method: as §2, §3

T1 sequence (P55899 24-297 limits assumed, chain 1 of 2): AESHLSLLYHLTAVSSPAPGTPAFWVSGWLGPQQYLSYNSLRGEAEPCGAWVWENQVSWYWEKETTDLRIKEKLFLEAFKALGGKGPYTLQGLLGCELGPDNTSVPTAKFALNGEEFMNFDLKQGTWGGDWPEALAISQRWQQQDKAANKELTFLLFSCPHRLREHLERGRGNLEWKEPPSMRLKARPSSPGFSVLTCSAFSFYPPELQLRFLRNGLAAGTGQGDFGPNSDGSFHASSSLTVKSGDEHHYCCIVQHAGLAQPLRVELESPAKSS
T1 sequence (P61769 21-119 limits assumed, chain 2 of 2): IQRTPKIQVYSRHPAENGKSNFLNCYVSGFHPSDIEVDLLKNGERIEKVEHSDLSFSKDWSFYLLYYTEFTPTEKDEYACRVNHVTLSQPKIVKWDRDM

B1: Peptide No. 63 (peptide)
peptide: QRF[Pen]TGHFGGL[Phe(4-NH2)]PCNGP-NH2
modifications: disulfide 4-14; N-terminus assumed
SMILES: CC(C)C[C@@H]1NC(=O)CNC(=O)CNC(=O)[C@H](Cc2ccccc2)NC(=O)[C@H](Cc2c[nH]cn2)NC(=O)CNC(=O)[C@H]([C@@H](C)O)NC(=O)[C@@H](NC(=O)[C@H](Cc2ccccc2)NC(=O)[C@H](CCCNC(=N)N)NC(=O)[C@@H](N)CCC(N)=O)C(C)(C)SSC[C@@H](C(=O)N[C@@H](CC(N)=O)C(=O)NCC(=O)N2CCC[C@H]2C(N)=O)NC(=O)[C@@H]2CCCN2C(=O)[C@H](Cc2ccc(N)cc2)NC1=O
IC50 [1]: 110 µM | Kd [2]: 34 µM

B2: Peptide No. 65 (peptide)
peptide: QRF[Pen]TGHFGGL[Phe(F5)]PCNGP-NH2
modifications: disulfide 4-14; N-terminus assumed
SMILES: CC(C)C[C@@H]1NC(=O)CNC(=O)CNC(=O)[C@H](Cc2ccccc2)NC(=O)[C@H](Cc2c[nH]cn2)NC(=O)CNC(=O)[C@H]([C@@H](C)O)NC(=O)[C@@H](NC(=O)[C@H](Cc2ccccc2)NC(=O)[C@H](CCCNC(=N)N)NC(=O)[C@@H](N)CCC(N)=O)C(C)(C)SSC[C@@H](C(=O)N[C@@H](CC(N)=O)C(=O)NCC(=O)N2CCC[C@H]2C(N)=O)NC(=O)[C@@H]2CCCN2C(=O)[C@H](Cc2c(F)c(F)c(F)c(F)c2F)NC1=O
Kd [3]: 72 µM

B3: Peptide No. 68 (peptide)
peptide: QRF[Pen]TGHFGGL[Phe(4-NO2)]PCNGP-NH2
modifications: disulfide 4-14; N-terminus assumed
SMILES: CC(C)C[C@@H]1NC(=O)CNC(=O)CNC(=O)[C@H](Cc2ccccc2)NC(=O)[C@H](Cc2c[nH]cn2)NC(=O)CNC(=O)[C@H]([C@@H](C)O)NC(=O)[C@@H](NC(=O)[C@H](Cc2ccccc2)NC(=O)[C@H](CCCNC(=N)N)NC(=O)[C@@H](N)CCC(N)=O)C(C)(C)SSC[C@@H](C(=O)N[C@@H](CC(N)=O)C(=O)NCC(=O)N2CCC[C@H]2C(N)=O)NC(=O)[C@@H]2CCCN2C(=O)[C@H](Cc2ccc([N+](=O)[O-])cc2)NC1=O
Kd [4]: 180 µM

B4: Peptide No. 84 (peptide)
peptide: QRF[Pen]TGHFGGHYPCNGP-NH2
modifications: disulfide 4-14; N-terminus assumed
SMILES: C[C@@H](O)[C@@H]1NC(=O)[C@@H](NC(=O)[C@H](Cc2ccccc2)NC(=O)[C@H](CCCNC(=N)N)NC(=O)[C@@H](N)CCC(N)=O)C(C)(C)SSC[C@@H](C(=O)N[C@@H](CC(N)=O)C(=O)NCC(=O)N2CCC[C@H]2C(N)=O)NC(=O)[C@@H]2CCCN2C(=O)[C@H](Cc2ccc(O)cc2)NC(=O)[C@H](Cc2c[nH]cn2)NC(=O)CNC(=O)CNC(=O)[C@H](Cc2ccccc2)NC(=O)[C@H](Cc2c[nH]cn2)NC(=O)CNC1=O
Kd [5]: 380 nM | Kd [6]: 2500 nM

B5: Peptide No. 140 (peptide)
peptide: QRF[Pen]TGHFGGL[Phe(4-F)]PCNGP-NH2
modifications: disulfide 4-14; N-terminus assumed
SMILES: CC(C)C[C@@H]1NC(=O)CNC(=O)CNC(=O)[C@H](Cc2ccccc2)NC(=O)[C@H](Cc2c[nH]cn2)NC(=O)CNC(=O)[C@H]([C@@H](C)O)NC(=O)[C@@H](NC(=O)[C@H](Cc2ccccc2)NC(=O)[C@H](CCCNC(=N)N)NC(=O)[C@@H](N)CCC(N)=O)C(C)(C)SSC[C@@H](C(=O)N[C@@H](CC(N)=O)C(=O)NCC(=O)N2CCC[C@H]2C(N)=O)NC(=O)[C@@H]2CCCN2C(=O)[C@H](Cc2ccc(F)cc2)NC1=O
IC50 [1]: 26 µM | Kd [7]: 24 µM

B6: Peptide No. 88 (peptide)
peptide: QRF[Pen]TGH[Phe(2-Me)]GGLYPCNGP-NH2
modifications: disulfide 4-14; N-terminus assumed
SMILES: Cc1ccccc1C[C@@H]1NC(=O)[C@H](Cc2c[nH]cn2)NC(=O)CNC(=O)[C@H]([C@@H](C)O)NC(=O)[C@@H](NC(=O)[C@H](Cc2ccccc2)NC(=O)[C@H](CCCNC(=N)N)NC(=O)[C@@H](N)CCC(N)=O)C(C)(C)SSC[C@@H](C(=O)N[C@@H](CC(N)=O)C(=O)NCC(=O)N2CCC[C@H]2C(N)=O)NC(=O)[C@@H]2CCCN2C(=O)[C@H](Cc2ccc(O)cc2)NC(=O)[C@H](CC(C)C)NC(=O)CNC(=O)CNC1=O
IC50 [8]: 1000 nM | Kd [9]: 200 nM

QRF[Pen]TGH[Phe(4-NHAc)]GGLYPCNGP-NH2 (disulfide 4-14) [Peptide No. 94]
Kd [10]: 270 µM

B7: Peptide No. 87 (peptide)
peptide: QRF[Pen]TGHFGGL[Tyr(2-NO2)]PCNGP-NH2
modifications: disulfide 4-14; N-terminus assumed
SMILES: CC(C)C[C@@H]1NC(=O)CNC(=O)CNC(=O)[C@H](Cc2ccccc2)NC(=O)[C@H](Cc2c[nH]cn2)NC(=O)CNC(=O)[C@H]([C@@H](C)O)NC(=O)[C@@H](NC(=O)[C@H](Cc2ccccc2)NC(=O)[C@H](CCCNC(=N)N)NC(=O)[C@@H](N)CCC(N)=O)C(C)(C)SSC[C@@H](C(=O)N[C@@H](CC(N)=O)C(=O)NCC(=O)N2CCC[C@H]2C(N)=O)NC(=O)[C@@H]2CCCN2C(=O)[C@H](Cc2ccc(O)cc2[N+](=O)[O-])NC1=O
Kd [11]: 290 µM
